Where two headings read alike, the source gives them in different places. One block for each binder: values may come before it.
What was measured:
[1] = target: T1, mouse ICOS expressed on CHO-S cells (mouse, UniProt Q9WVS0 21-141); assay: flow cytometry on CHO-S cells expressing mouse ICOS
T1 construct: full length mouse ICOS (NCBI NP_059508.2) was transfected; also called mICOS CHO; Mouse ICOS CHO
T1 sequence: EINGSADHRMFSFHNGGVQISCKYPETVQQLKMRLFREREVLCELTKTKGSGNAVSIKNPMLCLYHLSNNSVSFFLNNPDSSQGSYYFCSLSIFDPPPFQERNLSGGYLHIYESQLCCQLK

[2] = target: T2, human ICOS expressed on cells (human, UniProt Q9Y6W8 21-199); assay: flow cytometry on CHO-S cells expressing human ICOS
T2 construct: also called hICOS CHO; Human ICOS CHO
T2 sequence: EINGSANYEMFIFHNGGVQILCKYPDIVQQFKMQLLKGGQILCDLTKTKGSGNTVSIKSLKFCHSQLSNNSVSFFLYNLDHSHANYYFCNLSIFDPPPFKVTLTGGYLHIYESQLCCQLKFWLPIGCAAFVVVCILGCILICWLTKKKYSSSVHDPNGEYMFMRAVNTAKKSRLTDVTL

[3] = target: T2, human ICOS expressed on cells; assay: cell-based or functional assay
[4] = target: T2, human ICOS expressed on cells; assay: cell-based or functional assay; remark: listed apart in the source
[5] = target: T2, human ICOS expressed on cells; assay: cell-based or functional assay; remark: listed apart in the source
[6] = target: T1, mouse ICOS expressed on CHO-S cells; assay: FACS screen on CHO-S cells expressing mouse ICOS
Procedure: (§1) BCT supernatants and HEK293 expressed antibodies from Example 5 were tested for ability to bind to CHO-S cells expressing human or mouse ICOS.
(§2) CHO-S cells expressing human or mouse ICOS (see Example 2), were diluted in FACS buffer (PBS 1% BSA 0.1% sodium azide) and were distributed to a 96-well, V-bottom plate (Greiner) at a density of 1×10⁵ cells per well. Cells were washed with 150 μL PBS and centrifuged at 300 g for 3 minutes. For supernatant screening, supernatant was aspirated and 150 μL PBS added. This wash step was repeated. 30 μL BCT undiluted supernatant or 50 μL of reference antibody or control antibody diluted to 5 μg/ml in BCT media was added to the washed cells. Cells were incubated at 4° C. for 60 minutes. 150 μL FACS buffer was added and cells washed as described above. To detect antibody binding, 50 μL of goat anti-mouse APC (Jackson ImmunoResearch) diluted to 2 μg/ml in FACS buffer was added to cells. Cells were incubated 4° C. for 60 minutes. Cells were washed twice with 150 μL FACS buffer, centrifuging at 300 g for 3 minutes after each wash step and aspirating supernatant. Cells were fixed by addition of 25 μL 4% paraformaldehyde for 20 minutes at room temperature. Cells were washed once as above and resuspended in FACS buffer for analysis. APC signal intensity (geometric mean) was measured by flow cytometry using a BD FACS Array instrument. Data were plotted as geometric mean values without further calculation.

[7] = target: T2, human ICOS expressed on cells; assay: FACS screen on CHO-S cells expressing human ICOS
Procedure: as §1, §2

[8] = target: T3, mouse ICOS-mFc (Chimerigen) (mouse, UniProt Q9WVS0 21-144); assay: HTRF neutralisation of mouse B7-H2 binding to mouse ICOS-mFc, hamster IgG in the IgG1 series; SD 0 (n = 3)
T3 construct: bought; also called mouse ICOS receptor; not shown: mouse Fc of a bought reagent
T3 sequence (looked up): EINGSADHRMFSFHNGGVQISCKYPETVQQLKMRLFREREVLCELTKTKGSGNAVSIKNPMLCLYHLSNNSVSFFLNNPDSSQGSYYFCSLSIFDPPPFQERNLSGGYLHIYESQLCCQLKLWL

[9] = target: T3, mouse ICOS-mFc (Chimerigen); assay: HTRF neutralisation of mouse B7-H2 binding to mouse ICOS-mFc, hamster IgG in the IgG4.PE series; SD 0.1 (n = 3)
[10] = target: T4, human ICOS-mFc (Chimerigen) (human, UniProt Q9Y6W8 21-141); assay: HTRF neutralisation of human B7-H2 binding to human ICOS-mFc, hamster IgG in the IgG4.PE series; SD 3.8 (n = 4)
T4 construct: bought; also called human ICOS receptor; not shown: mouse Fc of a bought reagent
T4 sequence (looked up): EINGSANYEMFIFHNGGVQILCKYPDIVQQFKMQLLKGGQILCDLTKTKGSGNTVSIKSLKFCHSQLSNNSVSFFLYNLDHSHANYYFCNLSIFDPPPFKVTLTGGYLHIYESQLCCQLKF

[11] = target: T4, human ICOS-mFc (Chimerigen); assay: HTRF neutralisation of human B7-H2 binding to human ICOS-mFc, hamster IgG in the IgG1 series; SD 0.3 (n = 4)
[12] = target: T3, mouse ICOS-mFc (Chimerigen); assay: HTRF neutralisation of mouse B7-H2 binding to mouse ICOS-mFc, IgG1 series; same result as the 6th table, row 13, column 3 with more digits

B1: CL-74570 (IgG1 format) (antibody, V domains shown)
VH: EVQLVESGGGVIRPGGSLRLSCAASGFTFDDYGMSWVRQAPGKGLEWVSGINWIGDNTDYADSVKGRFTISRDNAKNSLYLQMNSLRAEDTALYYCARDYFGSGSYYNVPF
VL: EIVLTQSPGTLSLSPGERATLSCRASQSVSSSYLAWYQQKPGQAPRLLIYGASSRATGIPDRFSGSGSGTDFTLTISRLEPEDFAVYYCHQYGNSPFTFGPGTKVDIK
notes: synthesised and expressed in human IgG1 format in HEK cells; tested as supernatant
- fold above average geomean of negative control [1]: > 10 fold
- fold above average geomean of negative control [2]: > 10 fold

B3: STIM001 human IgG1 (antibody)
heavy: not shown
light: DIVMTQSPLSLPVTPGEPASISCRSSQSLLHSNEYNYLDWYLQKPGQSPQLLIFLGSNRASGVPDRFSGSGSGTDFTLKITRVEAEDVGIYYCMQSLQTPLTFGGGTKVEIKRTVAAPSVFIFPPSDEQLKSGTASVVCLLNNFYPREAKVQWKVDNALQSGNSQESVTEQDSKDSTYSLSSTLTLSKADYEKHKVYACEVTHQGLSSPVTKSFNRGEC
- EC50, primary NK cell ADCC on ICOS-transfected CCRF-CEM cells, 4 h, Donor 4 [3]: 0.00392 nM
- EC50, primary NK cell ADCC on ICOS-transfected CCRF-CEM cells, 4 h, Donor 5 [3]: 0.00395 nM
- EC50, primary NK cell ADCC on ICOS-transfected CCRF-CEM cells, 4 h, Donor 6 [3]: 0.00375 nM
- EC50, primary NK cell ADCC on MJ cells, 2 h, Donor 1 [5]: 0.121 nM
- EC50, primary NK cell ADCC on MJ cells, 2 h, Donor 2 [5]: 0.529 nM
- EC50, primary NK cell ADCC on MJ cells, 2 h, Donor 1 [4]: 0.121 nM
- EC50, primary NK cell ADCC on MJ cells, 2 h, Donor 2 [4]: 0.529 nM
- EC50, primary NK cell ADCC on MJ cells, 2 h, Donor 3 [4]: 2.92 nM

B4: STIM003 as screened from BCT (mouse IgG1 constant region) (antibody, V domains shown)
VH: EVQLVESGGGVVRPGGSLRLSCVASGVTFDDYGMSWVRQAPGKGLEWVSGINWNGGDTDYSDSVKGRFTISRDNAKNSLYLQMNSLRAEDTALYYCARDFYGSGSYYHVPFDYWGQGILVTVSS
VL: EIVLTQSPGTLSLSPGERATLSCRASQSVSRSYLAWYQQKRGQAPRLLIYGASSRATGIPDRFSGDGSGTDFTLSISRLEPEDFAVYYCHQYDMSPFTFGPGTKVDIK
notes: as m28
- fold above average geomean of negative control (HTK888) [6]: > 4 fold
- fold above average geomean of negative control (HTK888) [7]: > 4 fold

B7: STIM002-B as screened from BCT (mouse IgG1 constant region) (antibody, V domains shown)
VH: QVQLVQSGGEVKKPGASVKVSCKASGYTFTSYGFSWVRQAPGQGLEWMGWISAYNGNTNYAQKLQGRVTMTTDTSTSTAYMELRSLRSDDTAVYYCARSTYFYGSGTLYGMDVWGQGTTVTVSS
VL: DIVMTQSPLSLPVTPGEPASISCRSSQSLLHSDGYNCLDWYLQKPGQSPQLLIYLGSTRASGFPDRFSGSGSGTDFTLKISRVEAEDVGVYYCMQALQTPCSFGQGTKLEIK
notes: as m28
- fold above average geomean of hybrid control [6]: > 4 fold
- fold above average geomean of hybrid control [7]: > 4 fold

B9: CL-61091 (IgG1 format) (antibody, V domains shown)
VH: QVQLMQSGTEVKKPGASVKVSCKTSGYTFTTYGITWVRQAPGQGLEWMGWISAYSGDTDYAQKFQGRVTVTTDTSTNTAYMELRSLKSDDTAVYYCARSSGWPHHYGMDVWGQGTTVTVSS
VL: DIVMTQSPLSLPVTPGEPASISCRSSQSLLHSNGFNYFDWYLQKPGQSPQLLIFLVSNRASGVPDRFSGSGSGTDFTLKISRVEAEDVGIYYCMQALQTPLTFGGGTKVEIK
notes: as for B1
- fold above average geomean of negative control [1]: > 10 fold
- fold above average geomean of negative control [2]: > 10 fold

B10: STIM001 as screened from BCT (human V regions on mouse IgG1 constant region) (antibody, V domains shown)
VH: QVQVVQSGAEVKKPGASVKVSCKASGYTFSTFGITWVRQAPGQGLEWMGWISAYNGDTNYAQNLQGRVIMTTDTSTSTAYMELRSLRSDDTAVYYCARSSGHYYYYGMDVWGQGTTVTVSS
VL: DIVMTQSPLSLPVTPGEPASISCRSSQSLLHSNEYNYLDWYLQKPGQSPQLLIFLGSNRASGVPDRFSGSGSGTDFTLKITRVEAEDVGIYYCMQSLQTPLTFGGGTKVEIK
- fold above average geomean of hybrid control [6]: > 4 fold
- fold above average geomean of hybrid control [7]: > 4 fold

B11: Anti-ICOS antibody C398.4A (hamster IgG) (antibody, V domains shown)
VH: EVQLVESGGGLVKPAGSLTLSCVASGFTFSDYFMHWVRQAPGKGLEWVAVIDTKSFNYATYYSDLVKGRFTVSRDDSQGMVYLQMNNLRKEDTATYYCTATIAVPYYFDYWGQGTMVTVSS
VL: DIQMTQSPSSLPASLGDRVTINCQASQDISNYLSWYQQKPGKAPKLLIYYTNLLADGVPSRFSGSGSGRDYSFTISSLESEDIGSYYCQQYYNYRTFGPGTKLEIK
- IC50 [8]: 0.1 nM
- IC50 [9]: 0.2 nM
- IC50 [10]: 2.8 nM
- IC50 [11]: 1.2 nM
- IC50 [12]: 0.14 nM

Results, then the binder that gave them:

- EC50, primary NK cell ADCC on ICOS-transfected CCRF-CEM cells, 4 h, Donor 4 [3]: ~0.003 nM
- EC50, primary NK cell ADCC on ICOS-transfected CCRF-CEM cells, 4 h, Donor 5 [3]: 0.000895 nM
- EC50, primary NK cell ADCC on ICOS-transfected CCRF-CEM cells, 4 h, Donor 6 [3]: 0.00103 nM
- EC50, primary NK cell ADCC on MJ cells, 2 h, Donor 1 [4]: 0.00233 nM
- EC50, primary NK cell ADCC on MJ cells, 2 h, Donor 2 [4]: 0.0358 nM
- EC50, primary NK cell ADCC on MJ cells, 2 h, Donor 3 [4]: 0.101 nM
B2: STIM003 human IgG1 (antibody)
heavy: not shown
light: EIVLTQSPGTLSLSPGERATLSCRASQSVSRSYLAWYQQKRGQAPRLLIYGASSRATGIPDRFSGDGSGTDFTLSISRLEPEDFAVYYCHQYDMSPFTFGPGTKVDIKRTVAAPSVFIFPPSDEQLKSGTASVVCLLNNFYPREAKVQWKVDNALQSGNSQESVTEQDSKDSTYSLSSTLTLSKADYEKHKVYACEVTHQGLSSPVTKSFNRGEC

- fold above average geomean of negative control (HTK888) [6]: > 4 fold
- fold above average geomean of negative control (HTK888) [7]: > 4 fold
B5: STIM004 as screened from BCT (mouse IgG1 constant region) (antibody, V domains shown)
VH: EVQLVESGGGVVRPGGSLRLSCAASGLTFDDYGMSWVRQVPGKGLEWVSGINWNGDNTDYADSVKGRFTISRDNAKNSLYLQMNSLRAEDTALYYCARDYYGSGSYYNVPFDYWGQGTLVTVSS
VL: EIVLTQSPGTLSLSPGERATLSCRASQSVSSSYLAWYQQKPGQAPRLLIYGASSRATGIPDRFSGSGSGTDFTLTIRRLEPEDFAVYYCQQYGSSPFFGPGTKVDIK
notes: as m28

- fold above average geomean of hybrid control [6]: > 4 fold
- fold above average geomean of hybrid control [7]: > 4 fold
B6: STIM009 as screened from BCT (mouse IgG1 constant region) (antibody, V domains shown)
VH: QVQLVESGGGLVKPGGSLRLSCAASGFTFSDYYMSWIRQAPGKGLEWVSYISSSGSTIYYADSVKGRFTISRDNAKNSLYLQINSLRAEDTAVYYCARDFYDILTDSPYFYYGVDVWGQGTTVTVSS
VL: not shown
notes: as m28

- fold above average geomean of negative control (HTK888) [6]: > 4 fold
- fold above average geomean of negative control (HTK888) [7]: > 4 fold
B8: STIM005 as screened from BCT (mouse IgG1 constant region) (antibody, V domains shown)
VH: QVQLVQSGAEVKKPGASVKVSCKASGYTFNSYGIIWVRQAPGQGLEWMGWISVHNGNTNCAQKLQGRVTMTTDTSTSTAYMELRSLRTDDTAVYYCARAGYDILTDFSDAFDIWGHGTMVTVSS
VL: DIQMTQSPSSLSASVGDRVTITCRASQNINNFLNWYQQKEGKGPKLLIYAASSLQRGIPSTFSGSGSGTDFTLTISSLQPEDFATYICQQSYGIPWVGQGTKVEIK
notes: as m28
